The results in this text go back to patent US20250002610A1 (Genmab, published 2025).

For test [1], the target named is T1, human FAPα (Fibroblast activation protein alpha), cell surface expressed (human, UniProt Q12884 1-760).
T1 construct: Endogenous on human lung fibroblasts and CAFs
T1 sequence: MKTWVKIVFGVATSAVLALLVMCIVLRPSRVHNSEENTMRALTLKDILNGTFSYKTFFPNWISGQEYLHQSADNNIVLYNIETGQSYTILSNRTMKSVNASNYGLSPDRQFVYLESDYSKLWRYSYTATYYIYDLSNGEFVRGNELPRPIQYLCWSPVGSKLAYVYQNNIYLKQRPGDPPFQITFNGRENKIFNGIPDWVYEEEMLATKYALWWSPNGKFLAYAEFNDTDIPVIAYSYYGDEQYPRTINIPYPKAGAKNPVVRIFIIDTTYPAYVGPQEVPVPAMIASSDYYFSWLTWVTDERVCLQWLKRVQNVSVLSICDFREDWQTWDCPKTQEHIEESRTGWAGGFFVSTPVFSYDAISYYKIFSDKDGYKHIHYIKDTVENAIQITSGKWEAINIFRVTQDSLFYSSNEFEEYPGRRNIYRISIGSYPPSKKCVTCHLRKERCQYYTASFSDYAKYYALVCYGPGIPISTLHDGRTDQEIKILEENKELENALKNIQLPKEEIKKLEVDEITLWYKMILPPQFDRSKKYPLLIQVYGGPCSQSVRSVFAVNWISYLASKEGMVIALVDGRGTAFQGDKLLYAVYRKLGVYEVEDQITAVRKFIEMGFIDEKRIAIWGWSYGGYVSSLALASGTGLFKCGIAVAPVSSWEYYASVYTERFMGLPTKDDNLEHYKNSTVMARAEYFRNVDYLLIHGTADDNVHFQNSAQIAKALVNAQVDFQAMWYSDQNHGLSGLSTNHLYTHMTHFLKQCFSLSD
The test is described as follows: flow cytometry, CAFs, n = 1. The protocol:
Binding of bispecific or monoclonal antibodies carrying the anti-FAPα arm derived from IgG1-FAPα-FERL (BisG1-FAPα-FERL/DR4-FERR, BisG1-FAPα-FERL/b12-FERR, and IgG1-FAPα-FERL) to cell surface expressed human FAPα was analyzed by flow cytometry using human lung fibroblasts and CAFs, which endogenously express FAPα. BisG1-b12-FERL/b12-FERR was used as negative control.
Human lung fibroblasts and CAFs (50,000 cells/well) were seeded in 96-Well round bottom plates (Greiner Bio-one, Cat #650101). Antibody dilutions were prepared using fluorescence-activated cell sorting (FACS) buffer, consisting of phosphate buffer saline (PBS, Lonza, Cat #BE17-517Q)+1% Bovine Serum Albumin (BSA, Roche, Cat #10735086001)+0.02% Sodium Azide (Bio-World, Cat #41920044-3). Plates were centrifuged, supernatant was removed, cells were resuspended in 50 μL of human Fc Block (BD, Cat #564220, diluted 1:100 in FACS buffer) and 50 μL of viability stain TO-PRO-3 Iodide (Thermo Fisher, Cat #T3605, diluted 1: 25,000 in FACS buffer), and incubated for 15 min at 4° C. Plates were washed three times with FACS buffer. […] Antibody binding to viable cells (TO-PRO-3 negative) was analyzed by flow cytometry on a FACSCelesta™ (BD biosciences) and data were processed using FlowJo_v10.8.1 (FlowJo LLC). Geomean fluorescence intensity, gMFI, was determined and visualized using GraphPad Prism.

For another test, the target named is T2, human DR4HsECD-FcHisCtag (human).
T2 construct: also called recombinant human DR4
T2 sequence (chain, as listed by the source limits assumed): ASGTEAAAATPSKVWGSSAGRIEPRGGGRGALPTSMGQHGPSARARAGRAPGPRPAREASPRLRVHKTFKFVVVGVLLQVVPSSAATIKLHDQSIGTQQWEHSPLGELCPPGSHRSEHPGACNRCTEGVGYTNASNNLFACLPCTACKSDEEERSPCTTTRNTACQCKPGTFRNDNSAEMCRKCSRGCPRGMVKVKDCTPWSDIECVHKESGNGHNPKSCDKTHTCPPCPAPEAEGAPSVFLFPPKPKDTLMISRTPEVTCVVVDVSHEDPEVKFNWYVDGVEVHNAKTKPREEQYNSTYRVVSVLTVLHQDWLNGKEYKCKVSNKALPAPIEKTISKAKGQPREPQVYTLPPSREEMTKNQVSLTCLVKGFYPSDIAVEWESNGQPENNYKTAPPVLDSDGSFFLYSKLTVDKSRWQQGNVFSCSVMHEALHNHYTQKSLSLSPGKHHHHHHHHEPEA
Nature of the test: BLI (Octet), antigen captured on anti-Penta-HIS sensors, average of three experiments. Here is the method:
Experiments were carried out while shaking at 1,000 RPM at 30° C. Amine Reactive 2nd Generation (AR2G) biosensors (Sartorius, Cat #18-5092) were activated by reaction with 20 mM EDC (N-(3-Dimethylaminopropyl)-N′-ethylcarbodiimide hydrochloride) (Sigma-Aldrich, Cat #03449) and 10 mM s-NHS (N-hydroxysulfosuccinimide sodium salt) (Sigma-Aldrich, Cat #56485) for 300 s. The activated AR2G sensors were loaded with 2.5 μg/mL His-tagged recombinant Human FAPα (Acro Biosystems, Cat #FAP-H5244-100ug) in 10 mM Sodium Acetate pH 5.0 (Sartorius, Cat #18-1069) or 2.5 μg/mL His-tagged recombinant Cynomolgus FAPα (Acro Biosystems, Cat #FAP-C52H3-100ug) in 10 mM Sodium Acetate pH 5.0 for 600 s and quenched with 1 M ethanolamine pH 8.5 (Sartorius Cat #18-1071) for 300 s. After a baseline measurement in Sample Diluent (1000 s; Sartorius, Cat #18-1104), the association (100 s) and dissociation (4,000 s) of functionally monovalent antibody was determined using a concentration range of 0.78-800 nM with two-fold dilution steps in Sample Diluent. The molecular mass of the antibodies used for the calculations was calculated from the sequences.
The binding affinity of BisG1-FAPα-FERL/DR4-FERR, BisG1-b12-FERL/DR4-FERR and control BisG1-FAPα-FERL/b12-FERR to recombinant human and cynomolgus monkey DR4 protein was determined using label-free biolayer interferometry on an Octet HTX instrument (Sartorius).
The protocol detailed in Example 5 was used with the following differences: anti-Penta-HIS biosensors (Sartorius, Cat #18-5120) were used; the sensors were preconditioned by exposure to 10 mM glycine (Sigma-Aldrich, Cat #15527) buffer pH 1.5 for 5 s, followed by neutralization in Sample Diluent (Sartorius, Cat #18-1104) for 5 s; both steps were repeated 2 times; the sensors were loaded with 50 nM human DR4HsECD-FcHisCtag (SEQ ID NO: 66), or cynomolgus DR4MfECD-FcHisCtag (SEQ ID NO: 67), for 600 s; the dissociation time was 1,000 s; The window of interest for the dissociation time was set at 100 s for the cynomolgus antigen and at 1,000 s for the human antigen.

B1: BisG1-FAPα-FERL/b12-FERR (bispecific antibody, human IgG1, kappa)
heavy 1: EVQLLESGGGLVQPGGSPRLSCEASGFTFSSYALSWVRQAPGKGLEWVSAISGSGGGRYYADSVKGRFTISRDNSKNTLFLQMNSLRAEDTAVYYCAKEGYSSSGTYWDHWGQGTLVTVSSASTKGPSVFPLAPSSKSTSGGTAALGCLVKDYFPEPVTVSWNSGALTSGVHTFPAVLQSSGLYSLSSVVTVPSSSLGTQTYICNVNHKPSNTKVDKRVEPKSCDKTHTCPPCPAPEFERGPSVFLFPPKPKDTLMISRTPEVTCVVVDVSHEDPEVKFNWYVDGVEVHNAKTKPREEQYNSTYRVVSVLTVLHQDWLNGKEYKCKVSNKALPAPIEKTISKAKGQPREPQVYTLPPSREEMTKNQVSLTCLVKGFYPSDIAVEWESNGQPENNYKTTPPVLDSDGSFLLYSKLTVDKSRWQQGNVFSCSVMHEALHNHYTQKSLSLSPG
light 1: AIQMTQSPSSVSASVGDRVTITCRASQGVSSWLAWYQQKPGRAPKLLIYVASTLQSGVPSRFSGSGSGTDFTLTINSLQPEDFATYYCQQANSFPPTFGQGTRLEMKRTVAAPSVFIFPPSDEQLKSGTASVVCLLNNFYPREAKVQWKVDNALQSGNSQESVTEQDSKDSTYSLSSTLTLSKADYEKHKVYACEVTHQGLSSPVTKSFNRGEC
heavy 2: QVQLVQSGAEVKKPGASVKVSCQASGYRFSNFVIHWVRQAPGQRFEWMGWINPYNGNKEFSAKFQDRVTFTADTSANTAYMELRSLRSADTAVYYCARVGPYSWDDSPQDNYYMDVWGKGTTVIVSSASTKGPSVFPLAPSSKSTSGGTAALGCLVKDYFPEPVTVSWNSGALTSGVHTFPAVLQSSGLYSLSSVVTVPSSSLGTQTYICNVNHKPSNTKVDKRVEPKSCDKTHTCPPCPAPEFERGPSVFLFPPKPKDTLMISRTPEVTCVVVDVSHEDPEVKFNWYVDGVEVHNAKTKPREEQYNSTYRVVSVLTVLHQDWLNGKEYKCKVSNKALPAPIEKTISKAKGQPREPQVYTLPPSREEMTKNQVSLTCLVKGFYPSDIAVEWESNGQPENNYKTTPPVLDSDGSFFLYSRLTVDKSRWQQGNVFSCSVMHEALHNHYTQKSLSLSPG
light 2: EIVLTQSPGTLSLSPGERATFSCRSSHSIRSRRVAWYQHKPGQAPRLVIHGVSNRASGISDRFSGSGSGTDFTLTITRVEPEDFALYYCQVYGASSYTFGQGTKLERKRTVAAPSVFIFPPSDEQLKSGTASVVCLLNNFYPREAKVQWKVDNALQSGNSQESVTEQDSKDSTYSLSSTLTLSKADYEKHKVYACEVTHQGLSSPVTKSFNRGEC
As to B1, the EC50 in test [1] was found to be 0.183 µg/mL.

B2: BisG1-b12-FERL/DR4-FERR (bispecific antibody, human IgG1, kappa, lambda)
heavy 1: QVQLVQSGAEVKKPGASVKVSCQASGYRFSNFVIHWVRQAPGQRFEWMGWINPYNGNKEFSAKFQDRVTFTADTSANTAYMELRSLRSADTAVYYCARVGPYSWDDSPQDNYYMDVWGKGTTVIVSSASTKGPSVFPLAPSSKSTSGGTAALGCLVKDYFPEPVTVSWNSGALTSGVHTFPAVLQSSGLYSLSSVVTVPSSSLGTQTYICNVNHKPSNTKVDKRVEPKSCDKTHTCPPCPAPEFERGPSVFLFPPKPKDTLMISRTPEVTCVVVDVSHEDPEVKFNWYVDGVEVHNAKTKPREEQYNSTYRVVSVLTVLHQDWLNGKEYKCKVSNKALPAPIEKTISKAKGQPREPQVYTLPPSREEMTKNQVSLTCLVKGFYPSDIAVEWESNGQPENNYKTTPPVLDSDGSFLLYSKLTVDKSRWQQGNVFSCSVMHEALHNHYTQKSLSLSPG
light 1: EIVLTQSPGTLSLSPGERATFSCRSSHSIRSRRVAWYQHKPGQAPRLVIHGVSNRASGISDRFSGSGSGTDFTLTITRVEPEDFALYYCQVYGASSYTFGQGTKLERKRTVAAPSVFIFPPSDEQLKSGTASVVCLLNNFYPREAKVQWKVDNALQSGNSQESVTEQDSKDSTYSLSSTLTLSKADYEKHKVYACEVTHQGLSSPVTKSFNRGEC
heavy 2: QVQLQESGPGLVKPSGTLSLTCAVSGGSISSYSWWSWIRQPPGKGLEWIGELYHSGSTNYNPSLKSRVTISVDKSKNQFSLKLRSVTAADTAVYYCVRGVATIDYWGQGTLVTVSSASTKGPSVFPLAPSSKSTSGGTAALGCLVKDYFPEPVTVSWNSGALTSGVHTFPAVLQSSGLYSLSSVVTVPSSSLGTQTYICNVNHKPSNTKVDKRVEPKSCDKTHTCPPCPAPEFERGPSVFLFPPKPKDTLMISRTPEVTCVVVDVSHEDPEVKFNWYVDGVEVHNAKTKPREEQYNSTYRVVSVLTVLHQDWLNGKEYKCKVSNKALPAPIEKTISKAKGQPREPQVYTLPPSREEMTKNQVSLTCLVKGFYPSDIAVEWESNGQPENNYKTTPPVLDSDGSFFLYSRLTVDKSRWQQGNVFSCSVMHEALHNHYTQKSLSLSPG
light 2: QSALTQPPSASGSPGQSVTISCTGTSSDVGGYNFVSWYQQDPGKAPKLLIYEVTKRPSGVPDRFSGSKSGNTASLTVSGLQAEDEADYYCSSYAGSNNVMFGGGTKLTVLGQPKAAPSVTLFPPSSEELQANKATLVCLISDFYPGAVTVAWKADSSPVKAGVETTTPSKQSNNKYAASSYLSLTPEQWKSHRSYSCQVTHEGSTVEKTVAPTECS
notes: Fab-arm exchange of IgG1-b12-FERL and IgG1-DR4-FERR; also called bsIgG1-ctrl-FERLxDR4-FERR
In the test with human DR4HsECD-FcHisCtag, B2 gave a Kd of 0.32 nM, a koff of 0.0001 s⁻¹ and a kon of 330000 M⁻¹ s⁻¹.
